Tests used:
zymography = settings: glycan lost; control: nLcc4 (untreated)
[1] = zymography of culture media; settings: glycan lost; control: rLcc4-WT (P. pastoris)
[2] = activity versus pH and temperature; settings: glycan lost; control: nLcc4 (untreated)

B1: Lcc4 laccase (nLcc4): Endo H, 1 h to overnight (protein)
parent chain: MKALSFLTPIVTLALVAGAFASVGPVANLKIGNAAVSPDGYTRDAVVVNGATPGPLIVGNKGDNFRLNVIDELTNHTMLKSTSIHWHGFFQHGTNWADGGAFVNQCPISSGHSFSYNFQAKDQAGTFWYHSHLSTQYCDGLRGPFVVYDPKDPHKKLYDVDNESTVITLEDWYHTAARLGPRFPLGSDSTLINGLGRSATTATGDLAVIKVTRGKRYRFRLVSLSCDPFYTFSIDGHNMTIIEADAVNTKPHTVDSLEIFAGQRYSFILNANQPVDNYWVRANPNFGNVGFTNGINSAILRYDGAAVAEPATAIPPASVTPLLETDLHPLVSTPVPGSPVAGGVDKALNFVFNFDGTNFFINDATFTPPSVPVLLQILSGAQAAQDLLPSGSVIPLPALSTIELSFPATANAPGVPHPFHLHGHTFAVVRSAGSTAYNYEDPVWRDVVSTGTPAAGDNVTIRFVTDNPGPWFLHCHIDFHLEAGFAVVFAEDLPGTPAANPVPQSWSDLCPIYDALAEDDQ
enzymatic_activity (zymography): no change

B2: Lcc4 laccase (nLcc4): N75D (protein)
parent chain: B1 parent chain
enzymatic_activity [1]: decreases, the N75D mutant showed activity at around 60 s

B3: Lcc4 laccase (nLcc4): N238D (protein)
parent chain: B1 parent chain
enzymatic_activity [1]: abolishes

B4: Lcc4 laccase (nLcc4): Endo H (dLcc4) (protein)
parent chain: B1 parent chain
other: optimal pH and temperature [2]: no change

B5: Lcc4 laccase (nLcc4): N458D (protein)
parent chain: B1 parent chain
enzymatic_activity [1]: abolishes
